Data published in US20140079711A1 (Janssen / Centocor, published 2014).

T1: recombinant CD147 ECD-Flag construct (construct #3364, human CD147 ECD1-192) (human, UniProt Q865R3 22-192 (bovine entry))
T1 sequence: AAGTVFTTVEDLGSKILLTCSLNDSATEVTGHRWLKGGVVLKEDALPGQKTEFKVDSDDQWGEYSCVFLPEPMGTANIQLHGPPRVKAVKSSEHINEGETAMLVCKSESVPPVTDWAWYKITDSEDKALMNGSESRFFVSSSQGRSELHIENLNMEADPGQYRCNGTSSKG

T2: CD147-FL-ECD (Asp19-192 of SEQ ID NO: 1) (human, UniProt Q865R3 19-192 (bovine entry))
T2 construct: The Asp19 N-terminus is stated for the hexa-His ECD-FL; also called ECD-FL; CD147 ECD
T2 sequence: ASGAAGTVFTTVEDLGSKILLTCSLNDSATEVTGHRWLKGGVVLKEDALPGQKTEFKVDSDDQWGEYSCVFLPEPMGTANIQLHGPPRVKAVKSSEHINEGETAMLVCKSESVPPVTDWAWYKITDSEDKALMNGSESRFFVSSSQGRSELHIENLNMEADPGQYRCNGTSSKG

T3: native human CD147 on MDA-MB-231 breast carcinoma cells (human, UniProt P35613 140-385)
T3 construct: also called EMMPRIN; MDA-MB-231 cells
T3 sequence: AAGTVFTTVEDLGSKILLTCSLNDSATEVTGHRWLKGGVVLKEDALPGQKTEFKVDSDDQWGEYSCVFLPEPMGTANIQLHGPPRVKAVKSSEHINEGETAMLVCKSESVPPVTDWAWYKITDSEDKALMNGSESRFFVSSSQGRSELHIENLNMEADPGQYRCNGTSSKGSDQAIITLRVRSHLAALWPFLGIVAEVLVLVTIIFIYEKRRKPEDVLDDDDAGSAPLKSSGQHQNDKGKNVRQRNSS


Columns and labels:
[1] = molecular target: T1, recombinant CD147 ECD-Flag construct …; test: cell-based or functional assay
[2] = molecular target: T2, CD147-FL-ECD (Asp19-192 of SEQ ID NO: 1); test: SPR (Biacore 3000), mAb captured by anti-mouse Fc, CD147-FL-ECD injected
Experimental: Affinity for the CD147 ECD was also measured by surface plasmon resonance (Biacore). Kinetic studies were performed at 25° C. using a BIACORE 3000 (BIAcore, Inc.) surface plasmon resonance (SPR) instrument. Goat anti-mouse Fcy specific antibody (Jackson Immunoresearch laboratories Prod #115-005-071) was covalently attached to carboxymethyl dextran coated gold surfaces (CM-5 Chip, Biacore). The carboxymethyl groups of dextran were activated with N-Ethyl-N′-(3-Dimethylaminopropyl)carbodiimide (EDC) and N-hydroxysuccinimide (NHS). The Ab was attached at pH 4.5 in 10 mM sodium acetate. Any remaining reactive sites on the surface were blocked by reaction with ethanolamine.
For kinetic binding measurements, anti-CD147 mAbs were captured using an anti-mouse Fcy specific antibody at a flow rate of 30 μL/min. Ab capture was followed by injection of CD147-FL-ECD or the N- or C-domain fragments (as described in Example 1) at concentrations between 75 and 300 nM at 60 μL/min. Association data was collected for 2 min followed by 10 min of dissociation. The surface was regenerated with 15 μL of 100 mM H3PO4, followed by 15 μL of 50 mM NaOH at 30 μL/min. All samples were prepared in D-PBS containing 3 mM EDTA and 0.005% surfactant P20. Data reported is the difference in SPR signal between the flow cell containing the captured antibody and a reference cell without captured antibody. Additional instrumental contributions to the signal were removed by subtraction of the data from the blank injection from the reference-subtracted signal. Data were analyzed by fitting association and dissociation phases at all concentrations using the BIAevaluation software (BIAcore, Inc.).

[3] = molecular target: T3, native human CD147 on MDA-MB-231 breast …; test: live cell binding assay on MDA-MB-231 cells, HRP-conjugated secondary antibody, OD 490, antibody at 10 ug/ml

Row | MMP-1 IC50 [1] [µg/mL] | Kd [2] [nM] | binding result [3] | Binder
1 | 20 | 5 |  | 2C8(mIgG1) (antibody, V domains shown, Murine IgG1 from hybridoma; also called C1170A; C1170) VH: EMKLEESGGGLVQPGGSMKLSCVASGFTFSNYRMNWVRQSPEKGLEWVAQIRLKSYNYATHYAESVKGRFTISRDDSKSSVYLQMNNLRAEDTGIYYCTPDGSDYWGQGTTLTVSS VL: DILMTQSPSSMSVSLGDTVSITCHASQGISSSIGWLQQKPGKSFKGLIYHGTNLEDGVPSRFTGSGSGADYSLTISSLESEDFADYYCVQYAQFPYTFGGGTKLEIK
2 |  | 4 |  | 5F6(mIgG1) (antibody, V domains shown, Murine IgG1 from hybridoma; Two light chain V-regions were found for 5F6; also called C1171A; 5F6 mAb) VH: EMKLEESGGGLVQPGGSMKLSCVASGFTFSNYWMNWVRQSPEKGLEWVAQIRLKSYNYATHYAESVKGRFTISRDDSKSSVYLQMNNLRAEDTGIYYCTPDGSDYWGQGTTLTVSS VL: SIVMTQTPKFLLVSAGDRVTITCKASQSVSNDVAWYQQKPGQSPKLLIYYASNRYTGVPDRFTGSGYGTDFTFTISTVQAEDLAVYFCQQDYSSPYTFGGGTKLEIK
3 |  | 100 | binds | 4A5(mIgG1) (antibody, V domains shown, Murine IgG1 from hybridoma; also called C1177A; 4A5 mAb) VH: EVQLQQSGPELVKPGASVKISCKASGYTFTDYYMNWVKQSHGKSLEWIGGINPNNGGTSYNQKFKGKATLTVDKSSSTAYMELRSLTSEDSAVYYCARNDGYRGYAMDYWGQGTSVTVSS VL: not shown
